In publication PMC5714288:

Target: pyruvate kinase isoform M2 (PKM2) (human (endogenous in U1 and U937)) (UniProt P14618)
Test: native gel or EMSA

Chain of pyruvate kinase isoform M2 (PKM2), P14618 1-531 (natural protein; other documents disagree on this pair) (P14618 whole entry, canonical isoform): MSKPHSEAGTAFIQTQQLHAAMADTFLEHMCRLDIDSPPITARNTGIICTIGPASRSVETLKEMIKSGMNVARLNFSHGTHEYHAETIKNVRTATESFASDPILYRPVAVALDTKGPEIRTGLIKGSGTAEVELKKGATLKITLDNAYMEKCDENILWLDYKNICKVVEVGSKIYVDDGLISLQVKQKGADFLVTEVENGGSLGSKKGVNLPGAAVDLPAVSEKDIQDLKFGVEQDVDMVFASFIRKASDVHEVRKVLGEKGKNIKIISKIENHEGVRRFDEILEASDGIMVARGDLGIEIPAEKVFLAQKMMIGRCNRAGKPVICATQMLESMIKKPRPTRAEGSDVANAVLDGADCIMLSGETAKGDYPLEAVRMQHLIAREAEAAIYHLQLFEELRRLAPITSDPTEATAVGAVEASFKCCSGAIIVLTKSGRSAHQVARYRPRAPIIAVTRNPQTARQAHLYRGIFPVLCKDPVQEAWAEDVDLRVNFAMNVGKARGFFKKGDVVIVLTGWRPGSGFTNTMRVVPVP

stoichiometry N: 2
Substance: pyruvate kinase isoform M2 (PKM2), P14618 1-531 (natural protein; other documents disagree on this pair)
